Molecular target: the molecule itself
Assay: SEC

B1: full length unphosphorylated wild-type MEK6 (natural protein, human, UniProt P52564 1-334, looked up)
chain: MSQSKGKKRNPGLKIPKEAFEQPQTSSTPPRDLDSKACISIGNQNFEVKADDLEPIMELGRGAYGVVEKMRHVPSGQIMAVKRIRATVNSQEQKRLLMDLDISMRTVDCPFTVTFYGALFREGDVWICMELMDTSLDKFYKQVIDKGQTIPEDILGKIAVSIVKALEHLHSKLSVIHRDVKPSNVLINALGQVKMCDFGISGYLVDSVAKTIDAGCKPYMAPERINPELNQKGYSVKSDIWSLGITMIELAILRFPYDSWGTPFQQLKQVVEEPSPQLPADKFSAEFVDFTSQCLKKNSKERPTYPELMQHPFFTLHESKGTDVASFVKLILGD
stoichiometry N: 2

Source: publication PMC3689539 (Structure (London, England : 1993), 2009)
